Measurements: patent US20230050972A1 (MOMENTA PHARMACEUTICALS, published 2023)
Where “and” joins values, the source holds several entries; their conditions need not be identical. Equal values may be shown once.

T1: in-house generated I domain of α11β1 (human, UniProt Q9UKX5 159-349, limits assumed)
T1 construct: domain: I domain; also called human α11β1 I domain; α11β1 I Domain
T1 sequence (looked up): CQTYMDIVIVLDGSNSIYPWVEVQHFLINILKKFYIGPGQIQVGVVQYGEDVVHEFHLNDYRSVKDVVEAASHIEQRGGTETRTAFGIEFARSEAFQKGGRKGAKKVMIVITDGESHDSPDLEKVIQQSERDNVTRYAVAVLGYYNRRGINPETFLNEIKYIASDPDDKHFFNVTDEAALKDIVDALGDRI

B1: A11B1_3B1 (antibody, V domains shown)
VH: QEQLEESGGGLVKPEGSLTLTCKASGFDLSSGYDMCWVRQAPGKGLEWIACIYADYSGSTYYASWVNGRFTISSSTSLNTVDLKMTSLTAADTATYFCARGATGNGGYGYYFNLWGPGTLVTVSS
VL: DIVMTQTPASVSEPVGGTVTIKCQASQNINSGLAWYQQKPGQPPKLLIYKASTLASGVSSRFKGSGSGTEFTLTISDLECADAATYYCQTYYYSSSSSDNAFGGGTEVVVKG
notes: recombinant rabbit IgG, full chains
B2: A11B1_6C7 (antibody, V domains shown)
VH: QQQLEESGGGLVKPGGTLTLTCKASGIDFSSYYYMCWVRQAPGKGLELIVCIYTSSGGTWYASWVNGRLTISRSTSLNTVDLKMTSLTAADTATYFCARGVYSGSSDYPTRLDLWGQGTLVTVSL
VL: AIEMTQSPPSLSASVGETVRIRCLASEDIYSGISWYQQKPEKPPTLLISGASNLESGVPPRFSGGGSGTDYTLTIGGVQAEDVATYYCLGGYSFSSTGLTFGAGTKVEIKR
notes: as for B1
B3: A11B1_5A7 (antibody, V domains shown)
VH: QSLEESGGGLVQPEGSLTLACTASGFSFSSYYYICWVRQAPGTGLEWIGCINTGSDDTHYASWLKGRFTFSKASSTTLTLQMTSLTAADTATYFCARSSGSSDDAYDLWGPGTLVTVSS
VL: DVVMTQTPASVSEPVGGAVTIKCQASQSIGSNLAWYQHKPGQPPKLLIYFASSLASGVSSRFKGGRSGTQFTLTISDLECADAATYYCHCTYYPLSYVTFGGGTEVVVKG
notes: as for B1
B4: A11B1_5D7 (antibody, V domains shown)
VH: QEQLVESGGGLVQPEGSLTLTCKASGFDFSSNAMCWVRQAPGKGLEWIACIYNGDGSTYYASWVNGRFTISKTSSTTVTLQMTSLTAADTATYFCARGLSNWNRDNLWGPGTLVTVSS
VL: AQVLTQTPSSVSAAVGGTATINCQASQSLYSPKNLAWYQQTPGQPPKLLIYSASKLASGVPSRFKGSGSGTQFTLTISGVQCDDAAIYYCQGEFSCTTAACFAFGGGTEVVVKG
notes: as for B1
B5: 6-O17 (antibody, V domains shown)
VH: QVQLQQPGAELVKPGASVKLSCKASGYTFTSYWMHWIKQRPGQGLEWIGEINPSNGGSNYNEKFKSKATLTVDKSSSTAYMQLSSLTSEDSAVYHCKSRGYWGQGTTLTVSS
VL: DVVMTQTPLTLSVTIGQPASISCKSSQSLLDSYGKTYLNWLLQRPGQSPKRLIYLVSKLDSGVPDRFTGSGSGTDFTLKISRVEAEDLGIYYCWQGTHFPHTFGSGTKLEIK
notes: mouse hybridoma IgG
B6: A11B1_16G7 (antibody, V domains shown)
VH: QEQLVESGGDLVKPGASLTLTCTASGFSFNKNYWMCWVRQAPGKGLEWIGCIYNGDGNTYYASWVNGRFTISKTSSTTVTLQMTSLTVADTAIYFCARLLNMWGPGTLVTVSS
VL: DIVMTQTPASVEAAVGGTVTIKCQASESIGNALAWYQQKPGQPPKLLIYTAATLASGVPSRFSGSGSGTEFTLTISGVQCDDAATYYCQSYYFTSVSSYGNAFGGGTEVVVKG
notes: as for B1
B7: A11B1_6G4 (antibody, V domains shown)
VH: QQQLEESGGGLVKPGGTLTLTCKASGVALNPYYYMCWVRQAPGKGLEWIACVDADSSGSTYYASWAKGRFTISKTSSTTVTLKMTSLTAADTATYFCARESVDYSSVGIGYVHGTDGLWGPGTLVTVSS
VL: DIVVTQTPSSVSAAVGGTVTIKCQASQSISNYFSWYQQKPGQPPKLLIYRASTLASGVPSRFKGSGSGTEFTLTISDLECADAATYYCQCTYGRSNSNFFYGFGGGTEVVVKG
notes: as for B1
B8: 7-H14 (antibody, V domains shown)
VH: QVQLQQPGAELVRPGASVKLSCKPSGYTFTSYWMNWVKQRPGQGLEWIGMIDPSDSETHYNQMFKDKATLTVDKSSNTAYMQLSSLTSEDSAVYYCAQIYYAYDKAYWGQGTLVTVSA
VL: DIVMSQSPSSLAVSVGEKVTMSCKSSQSLLYSSHQKNYLAWYQQKPGQSPKLLIYWASTRESGVPDRFTGSGSGTDFSLTISSVKAEDLAVYYCQEYYSWTFGGGTKLEIK
notes: mouse hybridoma IgG
B9: A11B1_4E1 (antibody, V domains shown)
VH: QSLEESGGDLVKPGTSLTLSCTASGFSFGSYYYMCWVRQAPGKGLEWIACIDVGSSGDTYYASWVNGRFTISKTSSTTVTLQMTSLTAADTATYFCARDDTAAGGFGNLELWGPGTLVTVSS
VL: AFELTQTPSSVSEPVGGTVTIKCQASQSIYSYFSWYQQKPGQPPKRLIYQASTLASGVPSRFKGSGSGTDFTLTISDLECADAATYYCQNNYGRGSGSYFFGFGGGTEVVVKG
notes: as for B1
B10: 7D8B10 (antibody, V domains shown)
VH: EVKLEESGGGLVQPGMSVKLSCATSGFIFSDYWMEWVRQAPGKGLEWVAEIRNKANNYATYYGKSMKGRFTISRDDSKSIVYLQVNSIRSEDTAIYYCAPNFDYWGQGVMVTVSS
VL: DVVLTQTPPTLSATIGQSVSISCRSSQSLLHSTGNTYLNWLLQRPGQPPQLLIYLVSRLESGVPNRFSASGSGTDFTLKISGIEAEDLGVYYCVQSSHTPYTFGTGTKLELK
notes: rat hybridoma mAb
B11: 8-I14 (antibody, V domains shown)
VH: EVQLQQSGPELVKPGASVKKSCKASGYTFTDYYMHWVKQKPGQGLEWIGKIYPGSGNTHYNEKFKGKATLTADKSSSTAYMQLSSLTSEDSAVYFCATNYYGYRAMNYWGQGSSVTVSS
VL: DIHLTQSPSSLSASLGERISLTCRASQDIYISLNWFQQKPDGTIKLLIYGTSSLDSGVPKRFSGSRSGSDYSLTISSLESEDFADYYCLQYASSPYTFGGGTKLEIK
notes: mouse hybridoma IgG; also called 8-l14; 8114
B12: 9-E16 (antibody, V domains shown)
VH: EVQLQQSGPELVKPGASVKISCKASGYTFTDYYMHWVKQKPGQGLEWIGEIYPGSGNPYYNEKFKGKATLTADKSSSSAYMQLSSLTSEDSAVYFCARTSYGRVGTGFAYWGQGTLVTVSA
VL: NFVMTQTPLSLPVSLGDQASISCRSSQSLLHSNGNTYLHWYLQKPGQSPKLLIYKVSNRFSGVPDRFSGSGSGTDFTLKINRVETEDLGIYFCSQSSHVPTFGAGTKLELK
notes: mouse hybridoma IgG

molecular target: T2, α11β1 on human myofibroblasts (MF) (human, UniProt Q9UKX5 23-1188; P05556 21-798); assay: FACS on human myofibroblasts
T2 construct: whole, on cells
Experimental: Human Pulmonary Fibroblasts (ScienCell) were cultured in complete Fibroblast Growth Medium (ScienCell) until 80% confluent in T-150 flasks. Cells were washed and harvested using Accutase. Cells were seeded into T-150 flasks at 7,500 cells/cm² in complete FGF and cultured for 72 hours. Cells were then washed and starved in serum reduced medium for 24 hours. After starvation, cells were treated with TGFβ-1 (R&D Systems) for 72 hours. Cells were harvested using Accutase and seeded in 96-well conical bottom plates. Cells were blocked with Heat Inactived Fetal Bovine Serum (Gibco) for 30 minutes at 4° C. Cells were then incubated with anti-α11 antibodies at the doses described in each figure for 30 minutes at 4° C. A human anti-α11 antibody (Creative BioLabs) was included as a positive control as well as the appropriate IgG isotype negative controls. Cells were washed twice and incubated with PE conjugated secondary antibodies specific to the IgG class of the anti-α11 antibodies being tested for 30 minutes at 4° C. Cells were washed twice and fixed in 1% PFA for 30 minutes. Cells were acquired on a FACS Verse […]. Data were analyzed by gating on single cells and determining the geometric Mean Fluorescence Intensity (gMFI) in the PE channel for each sample.

| binding result | Binder |
| --- | --- |
| binds | B1 |
| binds | B2 |
| binds | B3 |
| binds | B4 |
| binds | B5 |
| binds | B6 |
| binds | B7 |
| binds | B8 |
| binds | B9 |
| binds | B10 |

molecular target: T1, in-house generated I domain of α11β1; assay: binding to isolated I domain

| binding result | Binder |
| --- | --- |
| no binding | B1 |
| no binding | B2 |
| no binding | B3 |
| no binding | B4 |
| no binding | B5 |
| no binding | B6 |
| no binding | B7 |
| no binding | B8 |
| no binding | B9 |
| no binding | B10 |

molecular target: T3, recombinant human α11β1 (human, UniProt Q9UKX5 23-1141; P05556 21-728); assay: ELISA on recombinant human α11β1
T3 construct: Coated in ELISA; ELISA and SPR material treated as one molecule; also called HIS-tagged human α11β1; integrin alpha 11 beta 1
Experimental: (§1) 0.25 μg/mL of target antigen (recombinant human or mouse α11β1) was plated in a 96-well plate over night at 4° C. Plates were washed (PBS with 0.1% Tween-20), blocked (PBS with 2% BSA and 0.05% Tween-20) for 1 hour at room temperature and incubated with a range of antibody concentrations for 1 hour at room temperature. Subsequently, plates were washed and incubated with biotinylated anti-rabbit/mouse/human IgG in a 1:1000 dilution buffer and incubated for 1 hour at room temperature. After washing the plates, Streptavidin HRP was added at 1:200 in dilution buffer and incubated for 1 hour at room temperature. Ultra TMB ELISA substrate solution was added and the plates incubated for 5 minutes on a plate shaker. The reaction was stopped by adding stop solution to each well and plates were read at 450 nm.

T3 sequence (Q9UKX5 23-1141 limits assumed, chain 1 of 2): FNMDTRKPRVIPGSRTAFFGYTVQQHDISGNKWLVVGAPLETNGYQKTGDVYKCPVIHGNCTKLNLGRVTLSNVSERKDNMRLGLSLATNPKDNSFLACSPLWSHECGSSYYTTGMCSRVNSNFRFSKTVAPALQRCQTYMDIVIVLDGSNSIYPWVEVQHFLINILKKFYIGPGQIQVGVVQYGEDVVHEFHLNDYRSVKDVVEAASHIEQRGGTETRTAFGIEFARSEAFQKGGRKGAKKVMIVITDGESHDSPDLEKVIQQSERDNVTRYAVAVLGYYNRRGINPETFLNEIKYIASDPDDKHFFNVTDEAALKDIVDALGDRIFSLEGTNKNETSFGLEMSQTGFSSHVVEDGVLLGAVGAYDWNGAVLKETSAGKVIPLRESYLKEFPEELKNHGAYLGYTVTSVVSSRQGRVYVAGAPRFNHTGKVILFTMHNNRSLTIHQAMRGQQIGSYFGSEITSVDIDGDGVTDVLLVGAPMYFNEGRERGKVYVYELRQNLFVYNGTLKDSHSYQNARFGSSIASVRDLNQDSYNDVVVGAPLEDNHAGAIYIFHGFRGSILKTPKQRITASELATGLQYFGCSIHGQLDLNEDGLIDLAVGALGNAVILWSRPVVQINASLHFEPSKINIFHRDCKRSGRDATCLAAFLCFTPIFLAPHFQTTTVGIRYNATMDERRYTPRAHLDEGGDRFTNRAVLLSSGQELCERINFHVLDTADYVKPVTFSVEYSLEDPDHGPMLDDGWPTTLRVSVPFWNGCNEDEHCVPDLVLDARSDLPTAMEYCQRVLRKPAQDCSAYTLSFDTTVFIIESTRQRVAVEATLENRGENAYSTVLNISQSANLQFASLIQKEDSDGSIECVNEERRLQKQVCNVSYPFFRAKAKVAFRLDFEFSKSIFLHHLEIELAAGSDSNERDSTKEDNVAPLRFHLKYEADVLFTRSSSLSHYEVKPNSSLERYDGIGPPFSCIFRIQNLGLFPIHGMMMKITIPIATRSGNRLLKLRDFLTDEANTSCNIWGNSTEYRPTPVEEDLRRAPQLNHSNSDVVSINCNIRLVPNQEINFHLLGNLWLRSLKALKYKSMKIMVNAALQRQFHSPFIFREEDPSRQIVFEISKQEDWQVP
T3 sequence (P05556 21-728 limits assumed, chain 2 of 2): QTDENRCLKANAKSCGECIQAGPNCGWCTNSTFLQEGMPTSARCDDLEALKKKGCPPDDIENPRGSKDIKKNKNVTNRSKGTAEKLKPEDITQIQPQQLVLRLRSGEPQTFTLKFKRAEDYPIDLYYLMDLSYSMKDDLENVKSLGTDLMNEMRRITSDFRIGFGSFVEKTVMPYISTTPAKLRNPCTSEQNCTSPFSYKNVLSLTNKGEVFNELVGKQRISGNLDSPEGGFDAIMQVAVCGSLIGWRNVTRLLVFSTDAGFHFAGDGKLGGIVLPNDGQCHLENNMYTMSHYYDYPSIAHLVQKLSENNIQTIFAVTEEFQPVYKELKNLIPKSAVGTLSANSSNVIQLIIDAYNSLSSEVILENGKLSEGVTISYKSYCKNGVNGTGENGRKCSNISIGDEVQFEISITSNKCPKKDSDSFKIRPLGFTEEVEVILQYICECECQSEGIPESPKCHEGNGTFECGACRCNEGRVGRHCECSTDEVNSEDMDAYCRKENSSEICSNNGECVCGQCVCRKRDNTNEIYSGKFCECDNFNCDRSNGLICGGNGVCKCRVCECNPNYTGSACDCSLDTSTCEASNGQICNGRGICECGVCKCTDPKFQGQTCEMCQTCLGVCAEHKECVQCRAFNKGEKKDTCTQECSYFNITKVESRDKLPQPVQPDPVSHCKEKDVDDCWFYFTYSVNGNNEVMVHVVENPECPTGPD

| binding result | Binder |
| --- | --- |
| binds | B1 |
| binds | B2 |
| binds | B3 |
| binds | B4 |
| binds | B5 |
| binds | B6 |
| binds | B7 |
| binds | B8 |
| binds | B9 |
| binds | B10 |

molecular target: T4, recombinant mouse α11β1 (mouse, UniProt P61622 23-1141; P09055 21-728, limits assumed); assay: ELISA on recombinant mouse α11β1
T4 construct: also called murine α11β1
Experimental: as §1

T4 sequence (P61622 23-1141 limits assumed, chain 1 of 2): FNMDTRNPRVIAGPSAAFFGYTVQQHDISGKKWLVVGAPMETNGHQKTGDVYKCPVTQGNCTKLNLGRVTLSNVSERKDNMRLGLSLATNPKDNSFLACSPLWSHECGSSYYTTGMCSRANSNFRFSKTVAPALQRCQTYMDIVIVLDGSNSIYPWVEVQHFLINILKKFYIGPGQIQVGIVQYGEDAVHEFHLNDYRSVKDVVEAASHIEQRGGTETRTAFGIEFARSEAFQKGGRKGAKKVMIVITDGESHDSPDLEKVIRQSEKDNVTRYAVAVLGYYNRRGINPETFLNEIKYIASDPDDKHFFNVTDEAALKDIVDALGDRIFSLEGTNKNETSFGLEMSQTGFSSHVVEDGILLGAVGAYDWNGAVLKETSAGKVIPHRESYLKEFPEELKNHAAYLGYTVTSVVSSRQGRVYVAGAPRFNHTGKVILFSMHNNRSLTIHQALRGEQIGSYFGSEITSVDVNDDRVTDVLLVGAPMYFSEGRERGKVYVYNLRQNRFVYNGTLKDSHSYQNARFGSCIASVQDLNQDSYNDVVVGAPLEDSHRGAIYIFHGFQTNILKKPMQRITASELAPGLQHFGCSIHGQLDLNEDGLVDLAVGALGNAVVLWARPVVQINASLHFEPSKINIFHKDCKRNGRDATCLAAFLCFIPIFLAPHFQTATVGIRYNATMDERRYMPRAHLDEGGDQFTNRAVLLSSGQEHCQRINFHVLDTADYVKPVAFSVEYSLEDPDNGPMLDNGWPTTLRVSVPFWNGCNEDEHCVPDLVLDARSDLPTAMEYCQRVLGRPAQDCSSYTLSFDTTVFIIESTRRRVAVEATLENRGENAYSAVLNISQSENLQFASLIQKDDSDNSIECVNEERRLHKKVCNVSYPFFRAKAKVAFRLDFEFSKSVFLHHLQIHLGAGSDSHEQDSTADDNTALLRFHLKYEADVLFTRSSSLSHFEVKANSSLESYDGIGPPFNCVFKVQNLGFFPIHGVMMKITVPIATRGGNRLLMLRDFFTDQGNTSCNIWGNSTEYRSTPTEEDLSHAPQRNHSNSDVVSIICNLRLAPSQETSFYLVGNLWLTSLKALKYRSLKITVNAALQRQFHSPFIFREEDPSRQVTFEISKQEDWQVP
T4 sequence (P09055 21-728 limits assumed, chain 2 of 2): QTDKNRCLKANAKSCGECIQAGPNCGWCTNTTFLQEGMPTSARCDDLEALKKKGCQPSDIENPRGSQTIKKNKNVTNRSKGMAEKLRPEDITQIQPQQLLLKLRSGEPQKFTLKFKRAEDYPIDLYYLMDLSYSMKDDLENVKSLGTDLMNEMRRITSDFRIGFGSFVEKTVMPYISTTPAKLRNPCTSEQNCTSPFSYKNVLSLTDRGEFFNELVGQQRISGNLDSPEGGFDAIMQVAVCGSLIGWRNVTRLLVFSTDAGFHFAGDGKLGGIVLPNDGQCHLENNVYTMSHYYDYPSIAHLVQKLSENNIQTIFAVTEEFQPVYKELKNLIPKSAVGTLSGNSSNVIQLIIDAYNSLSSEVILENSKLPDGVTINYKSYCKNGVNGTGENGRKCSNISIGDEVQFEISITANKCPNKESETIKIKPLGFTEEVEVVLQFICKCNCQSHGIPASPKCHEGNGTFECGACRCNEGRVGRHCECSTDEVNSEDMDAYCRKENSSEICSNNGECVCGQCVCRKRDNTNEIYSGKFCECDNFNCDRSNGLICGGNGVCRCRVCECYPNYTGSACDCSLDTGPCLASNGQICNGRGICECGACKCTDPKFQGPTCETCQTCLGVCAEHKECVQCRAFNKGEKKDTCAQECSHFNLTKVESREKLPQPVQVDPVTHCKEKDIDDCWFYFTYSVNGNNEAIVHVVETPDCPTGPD

| binding result | Binder |
| --- | --- |
| no binding | B1 |
| no binding | B2 |
| no binding | B3 |
| no binding | B4 |
| binds | B5 |
| binds | B6 |
| no binding | B7 |
| binds | B8 |
| no binding | B9 |
| no binding | B10 |

molecular target: T1, in-house generated I domain of α11β1; assay: ELISA on the human α11β1 I domain

| binding result | Binder |
| --- | --- |
| no binding (tested: 1 µg/mL) | B11 |

molecular target: human α11β1 expressed on the surface of CHO-K1 cells (human, UniProt Q9UKX5 23-1188); assay: FACS on CHO-K1 hu α11β1 cells, estimated EC50
Experimental: 200,000 cells (wild-type CHO-K1 cells or CHO-K1 cells expressing human α11) were incubated with each antibody at desired concentrations in FACS buffer for 30 min at 4° C. Then, the cells were washed with FACS buffer and incubated with secondary antibody at 1:100 dilution for 30 minutes at 4° C. Cells were then washed and fixed with 1% PFA in PBS for 20 minutes at room temperature; washed again and read on a cytometer in FACS buffer.
Binding EC₅₀ was estimated using data from Fluorescence-activated cell sorting (FACS) performed with CHO-K1 hu α11β1 cells. Four out of six mAbs tested had EC₅₀ results in the low nanomolar range (8-P20, 8-G15, 8-J17, 8-l14), while the remaining two mAbs were not as potent (9-G05 and 9-E16; both I domain binders).

human α11β1 expressed on the surface of CHO-K1 cells, sequence (Q9UKX5 23-1188): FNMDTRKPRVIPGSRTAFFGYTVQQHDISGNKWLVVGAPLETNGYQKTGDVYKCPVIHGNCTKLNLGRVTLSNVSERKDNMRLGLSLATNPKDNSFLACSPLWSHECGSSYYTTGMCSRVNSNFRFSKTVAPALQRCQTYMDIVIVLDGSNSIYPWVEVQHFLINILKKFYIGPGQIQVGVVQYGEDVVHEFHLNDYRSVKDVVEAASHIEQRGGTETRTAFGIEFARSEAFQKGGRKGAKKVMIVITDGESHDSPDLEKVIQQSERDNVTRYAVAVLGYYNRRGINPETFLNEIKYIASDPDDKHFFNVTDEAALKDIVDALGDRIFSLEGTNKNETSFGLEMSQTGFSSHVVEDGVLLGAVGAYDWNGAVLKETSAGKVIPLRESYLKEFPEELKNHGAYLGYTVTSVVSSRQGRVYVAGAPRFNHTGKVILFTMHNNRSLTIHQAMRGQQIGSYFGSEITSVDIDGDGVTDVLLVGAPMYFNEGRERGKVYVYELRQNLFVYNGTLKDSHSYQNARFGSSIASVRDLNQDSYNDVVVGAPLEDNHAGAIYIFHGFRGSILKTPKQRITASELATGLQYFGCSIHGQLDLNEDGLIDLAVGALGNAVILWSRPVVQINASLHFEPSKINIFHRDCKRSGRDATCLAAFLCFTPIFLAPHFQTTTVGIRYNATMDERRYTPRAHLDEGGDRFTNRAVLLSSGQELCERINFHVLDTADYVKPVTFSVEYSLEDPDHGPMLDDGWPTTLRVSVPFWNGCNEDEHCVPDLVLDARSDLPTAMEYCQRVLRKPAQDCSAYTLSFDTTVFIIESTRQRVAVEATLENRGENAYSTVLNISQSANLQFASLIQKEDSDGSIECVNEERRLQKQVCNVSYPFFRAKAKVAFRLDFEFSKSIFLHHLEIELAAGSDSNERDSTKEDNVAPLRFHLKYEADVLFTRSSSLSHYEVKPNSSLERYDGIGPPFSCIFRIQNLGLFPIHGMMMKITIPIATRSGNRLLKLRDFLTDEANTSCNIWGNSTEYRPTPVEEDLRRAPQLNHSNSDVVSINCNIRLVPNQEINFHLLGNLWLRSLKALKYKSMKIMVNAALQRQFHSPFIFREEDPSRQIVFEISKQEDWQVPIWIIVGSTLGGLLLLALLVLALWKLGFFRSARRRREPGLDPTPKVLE

| EC50 | Binder |
| --- | --- |
| 42.8 µg/mL and 285 nM | B12 |
| 1.22 µg/mL and 8.1 nM | B11 |

molecular target: T3, recombinant human α11β1; assay: ELISA, plate coated with recombinant human α11β1
Experimental: as §1

| EC50 (read off the curve) [ng/mL] | Binder |
| --- | --- |
| ~1 | B12 |
| ~0.2 | B11 |

molecular target: T4, recombinant mouse α11β1; assay: ELISA, plate coated with recombinant mouse α11β1
Experimental: as §1

| EC50 (read off the curve) [ng/mL] | Binder |
| --- | --- |
| ~6 | B12 |
| ~6 | B11 |
